The series in a line: In vivo pharmacokinetic (PK) studies in rats. Details: species or system Sprague-Dawley rats. To be noted: for AUC(0-inf): read-out: Rat PK AUC Total; for level at time molar at 24 h: read-out: Rat PK C24. The procedure:
[…] Blood samples were collected via jugular vein at different time points out to 72 hours. Blood samples were allowed to coagulate at room temperature (30-60 m) and then centrifuged (1500-2000) at 4° C. to obtain serum. After centrifugation serum samples were transferred to 96 well plates and stored at −80° C. until bioanalysis. Relaxin concentrations were measured from serum by ELISA.
Relaxin concentration-time profiles from individual animals were used for analysis. Pharmacokinetic parameters were calculated by non-compartmental methods using Phoenix WinNonlin (version 6.4) or Kinetica (version 5). Mean pharmacokinetic parameters Cmax, AUCinf, C24 and half-life were reported (Table 4). Table 4. In vivo PK data (abbreviations as in Table 3).

The mark [1] stands for this setting: rat, male Sprague-Dawley rats, single SC dose 1.0 mg/kg, serum ELISA.
The mark [2] stands for this setting: rats, SC dose 1.0 mg/kg, adjusted from 0.3 mpk.

Read-outs that look alike come from different tables or passages of the source.

From patent publication US12097241B2, “Methods of treating kidney failure, and/or improving or stablizing renal function using modified relaxin polypeptides” (BRISTOL-MYERS SQUIBB COMPANY, priority 2017, dated 2024) come the findings set out here.

With `CC[C@H](C)[C@@H]1NC(=O)[C@H](C)NC(=O)[C@H]([C@@H](C)CC)NC(=O)[C@H](CCC(N)=O)NC(=O)[C@H](C)NC(=O)[C@H](CCCNC(=N)N)NC(=O)[C@H](C(C)C)NC(=O)[C@H](CC(C)C)NC(=O)[C@H](CCC(=O)O)NC(=O)[C@H](CCCNC(=N)N)NC(=O)CNC(=O)[C@@H](NC(=O)[C@H](CC(C)C)NC(=O)[C@H](CCCCN)NC(=O)[C@@H](NC(=O)[C@@H](NC(=O)[C@H](CCC(=O)O)NC(=O)[C@H](CCC(=O)O)NC(=O)[C@H](CCSC)NC(=O)[C@H](Cc2c[nH]c3ccccc23)NC(=O)[C@H](CO)NC(=O)[C@H](C)N)C(C)C)[C@@H](C)CC)CSSC[C@@H]2NC(=O)[C@@H](NC(=O)[C@H](CCCCN)NC(=O)[C@H](CC(N)=O)NC(=O)[C@H](C)NC(=O)[C@H](CC(C)C)NC(=O)[C@H](C)NC(=O)[C@H](CO)NC(=O)[C@H](Cc3ccc(O)cc3)NC(=O)[C@H](CC(C)C)NC(=O)[C@@H](N)Cc3ccc(C(C)=NOCCNC(=O)CNC(=O)[C@H](CCC(=O)O)NC(=O)[C@@H](NC(=O)CNC(=O)[C@H](CO)NC(=O)[C@H](CO)NC(=O)CNC(=O)[C@H](CCC(=O)O)NC(=O)CNC(=O)[C@@H](NC(=O)CC[C@H](NC(=O)CCCCCCCCCCCCC(=O)O)C(=O)O)[C@@H](C)O)[C@@H](C)O)cc3)CSSC[C@H](NC(=O)CNC(=O)[C@H](C(C)C)NC(=O)[C@H](Cc3c[nH]cn3)NC2=O)C(=O)N[C@@H]([C@@H](C)O)C(=O)N[C@@H](CCCCN)C(=O)N[C@@H](CCCNC(=N)N)C(=O)N[C@@H](CO)C(=O)N[C@@H](CC(C)C)C(=O)N[C@@H](C)C(=O)N[C@@H](CCCNC(=N)N)C(=O)N[C@@H](Cc2ccccc2)C(=O)N[C@H](C(=O)O)CSSC[C@@H](C(=O)NCC(=O)N[C@@H](CCSC)C(=O)N[C@@H](CO)C(=O)N[C@H](C(=O)N[C@@H](Cc2c[nH]c3ccccc23)C(=O)N[C@@H](CO)C(=O)O)[C@@H](C)O)NC1=O` [AQ1-GETGSSGEGT-Glu^γ-C13-COOH], under setting [1], the AUC(0-inf) was found to be 1.11 µM·h and the level at time molar at 24 h was 0.28 nM.

On to `CC[C@H](C)[C@@H]1NC(=O)[C@H](C)NC(=O)[C@H]([C@@H](C)CC)NC(=O)[C@H](CCC(N)=O)NC(=O)[C@H](C)NC(=O)[C@H](CCCNC(=N)N)NC(=O)[C@H](C(C)C)NC(=O)[C@H](CC(C)C)NC(=O)[C@H](CCC(=O)O)NC(=O)[C@H](CCCNC(=N)N)NC(=O)CNC(=O)[C@@H](NC(=O)[C@H](CC(C)C)NC(=O)[C@H](CCCCN)NC(=O)[C@@H](NC(=O)[C@@H](NC(=O)[C@H](CCC(=O)O)NC(=O)[C@H](CCC(=O)O)NC(=O)[C@H](CCSC)NC(=O)[C@H](Cc2c[nH]c3ccccc23)NC(=O)[C@H](CO)NC(=O)[C@H](C)N)C(C)C)[C@@H](C)CC)CSSC[C@@H]2NC(=O)[C@@H](NC(=O)[C@H](CCCCN)NC(=O)[C@H](CC(N)=O)NC(=O)[C@H](C)NC(=O)[C@H](CC(C)C)NC(=O)[C@H](C)NC(=O)[C@H](CO)NC(=O)[C@H](Cc3ccc(O)cc3)NC(=O)[C@H](CC(C)C)NC(=O)[C@@H](N)Cc3ccc(C(C)=NOCCNC(=O)CNC(=O)CNC(=O)CNC(=O)[C@H](CCC(=O)O)NC(=O)[C@H](CCC(=O)O)NC(=O)[C@H](CCC(=O)O)NC(=O)CC[C@H](NC(=O)CCCCCCCCCCCCC(=O)O)C(=O)O)cc3)CSSC[C@H](NC(=O)CNC(=O)[C@H](C(C)C)NC(=O)[C@H](Cc3c[nH]cn3)NC2=O)C(=O)N[C@@H]([C@@H](C)O)C(=O)N[C@@H](CCCCN)C(=O)N[C@@H](CCCNC(=N)N)C(=O)N[C@@H](CO)C(=O)N[C@@H](CC(C)C)C(=O)N[C@@H](C)C(=O)N[C@@H](CCCNC(=N)N)C(=O)N[C@@H](Cc2ccccc2)C(=O)N[C@H](C(=O)O)CSSC[C@@H](C(=O)NCC(=O)N[C@@H](CCSC)C(=O)N[C@@H](CO)C(=O)N[C@H](C(=O)N[C@@H](Cc2c[nH]c3ccccc23)C(=O)N[C@@H](CO)C(=O)O)[C@@H](C)O)NC1=O` [AQ1-GGGEEE-Glu^γ-C13-COOH], for which, under setting [1], the AUC(0-inf) came to 0.866 µM·h and the level at time molar at 24 h amounted to 0.18 nM.

Regarding `CC[C@H](C)[C@@H]1NC(=O)[C@H](C)NC(=O)[C@H]([C@@H](C)CC)NC(=O)[C@H](CCC(N)=O)NC(=O)[C@H](C)NC(=O)[C@H](CCCNC(=N)N)NC(=O)[C@H](C(C)C)NC(=O)[C@H](CC(C)C)NC(=O)[C@H](CCC(=O)O)NC(=O)[C@H](CCCNC(=N)N)NC(=O)CNC(=O)[C@@H](NC(=O)[C@H](CC(C)C)NC(=O)[C@H](CCCCN)NC(=O)[C@@H](NC(=O)[C@@H](NC(=O)[C@H](CCC(=O)O)NC(=O)[C@H](CCC(=O)O)NC(=O)[C@H](CCSC)NC(=O)[C@H](Cc2c[nH]c3ccccc23)NC(=O)[C@H](CO)NC(=O)[C@H](C)N)C(C)C)[C@@H](C)CC)CSSC[C@@H]2NC(=O)[C@@H](NC(=O)[C@H](CCCCN)NC(=O)[C@H](CC(N)=O)NC(=O)[C@H](C)NC(=O)[C@H](CC(C)C)NC(=O)[C@H](C)NC(=O)[C@H](CO)NC(=O)[C@H](Cc3ccc(O)cc3)NC(=O)[C@H](CC(C)C)NC(=O)[C@@H](N)Cc3ccc(C(C)=NOCCNC(=O)CNC(=O)CNC(=O)CNC(=O)CNC(=O)[C@H](CO)NC(=O)CC[C@H](NC(=O)CCCCCCCCCCCCCCC(=O)O)C(=O)O)cc3)CSSC[C@H](NC(=O)CNC(=O)[C@H](C(C)C)NC(=O)[C@H](Cc3c[nH]cn3)NC2=O)C(=O)N[C@@H]([C@@H](C)O)C(=O)N[C@@H](CCCCN)C(=O)N[C@@H](CCCNC(=N)N)C(=O)N[C@@H](CO)C(=O)N[C@@H](CC(C)C)C(=O)N[C@@H](C)C(=O)N[C@@H](CCCNC(=N)N)C(=O)N[C@@H](Cc2ccccc2)C(=O)N[C@H](C(=O)O)CSSC[C@@H](C(=O)NCC(=O)N[C@@H](CCSC)C(=O)N[C@@H](CO)C(=O)N[C@H](C(=O)N[C@@H](Cc2c[nH]c3ccccc23)C(=O)N[C@@H](CO)C(=O)O)[C@@H](C)O)NC1=O` [AQ1-GGGGS-Glu^γ-C15-COOH], under setting [2], the “Rat PK AUC Total” value came to 5.526 µM·h and the level at time molar at 24 h came out at 44 nM.

As to `CC[C@H](C)[C@@H]1NC(=O)[C@H](C)NC(=O)[C@H]([C@@H](C)CC)NC(=O)[C@H](CCC(N)=O)NC(=O)[C@H](C)NC(=O)[C@H](CCCNC(=N)N)NC(=O)[C@H](C(C)C)NC(=O)[C@H](CC(C)C)NC(=O)[C@H](CCC(=O)O)NC(=O)[C@H](CCCNC(=N)N)NC(=O)CNC(=O)[C@@H](NC(=O)[C@H](CC(C)C)NC(=O)[C@H](CCCCN)NC(=O)[C@@H](NC(=O)[C@@H](NC(=O)[C@H](CCC(=O)O)NC(=O)[C@H](CCC(=O)O)NC(=O)[C@H](CCSC)NC(=O)[C@H](Cc2c[nH]c3ccccc23)NC(=O)[C@H](CO)NC(=O)[C@H](C)N)C(C)C)[C@@H](C)CC)CSSC[C@@H]2NC(=O)[C@@H](NC(=O)[C@H](CCCCN)NC(=O)[C@H](CC(N)=O)NC(=O)[C@H](C)NC(=O)[C@H](CC(C)C)NC(=O)[C@H](C)NC(=O)[C@H](CO)NC(=O)[C@H](Cc3ccc(O)cc3)NC(=O)[C@H](CC(C)C)NC(=O)[C@@H](N)Cc3ccc(C(C)=NOCCNC(=O)CNC(=O)CNC(=O)CNC(=O)[C@H](CCCCN)NC(=O)[C@H](CCCCN)NC(=O)[C@H](CCCCN)NC(=O)CC[C@H](NC(=O)CCCCCCCCCCCCC(=O)O)C(=O)O)cc3)CSSC[C@H](NC(=O)CNC(=O)[C@H](C(C)C)NC(=O)[C@H](Cc3c[nH]cn3)NC2=O)C(=O)N[C@@H]([C@@H](C)O)C(=O)N[C@@H](CCCCN)C(=O)N[C@@H](CCCNC(=N)N)C(=O)N[C@@H](CO)C(=O)N[C@@H](CC(C)C)C(=O)N[C@@H](C)C(=O)N[C@@H](CCCNC(=N)N)C(=O)N[C@@H](Cc2ccccc2)C(=O)N[C@H](C(=O)O)CSSC[C@@H](C(=O)NCC(=O)N[C@@H](CCSC)C(=O)N[C@@H](CO)C(=O)N[C@H](C(=O)N[C@@H](Cc2c[nH]c3ccccc23)C(=O)N[C@@H](CO)C(=O)O)[C@@H](C)O)NC1=O` [AQ1-GGGKKK-Glu^γ-C13-COOH], under setting [1], the AUC(0-inf) stood at 0.231 µM·h and the level at time molar at 24 h was found to be 0.1 nM.
